Experiments:
Ubiquitin (WT) = Ubiquitin (WT) (UniProt P0CG48 1-76); experiment: NMR titration
SEC = molecular target: the molecule itself; experiment: SEC

| Kd (Ubiquitin (WT)) [nM] | Binder | binding result (SEC) |
| --- | --- | --- |
| 3000 | UBQLN2 450–624 (domain or fragment, human) RAMQALMQIQQGLQTLATEAPGLIPSFTPGVGVGVLGTAIGPVGPVTPIGPIGPIVPFTPIGPIGPIGPTGPAAPPGSTGSGGPTGPTVSSAAPSETTSPTSESGPNQQFIQQMVQALAGANAPQLPNPEVRFQQQLEQLNAMGFLNREANLQALIATGGDINAAIERLLGSQPSW | binds |
| – | UBQLN2 379–624 (domain or fragment, human) NPQLIQNMLSAPYMRSMMQSLSQNPDLAAQMMLNSPLFTANPQLQEQMRPQLPAFLQQMQNPDTLSAMSNPRAMQALMQIQQGLQTLATEAPGLIPSFTPGVGVGVLGTAIGPVGPVTPIGPIGPIVPFTPIGPIGPIGPTGPAAPPGSTGSGGPTGPTVSSAAPSETTSPTSESGPNQQFIQQMVQALAGANAPQLPNPEVRFQQQLEQLNAMGFLNREANLQALIATGGDINAAIERLLGSQPSW | binds |
